Data: publication PMC11785096

Target: another dynein heavy chain (unidentified second DHC of dynein-X) (Lytechinus variegatus (endogenous in sperm))
Assay: cryo-EM structure

In the case of “DNAHX (dynein heavy chain, XP_041462850) (natural protein)”, the percent of DNAHX particles in a two-headed dynein complex (open conformation) is reported as 27% and the percent of DNAHX particles in phi particle dynein is reported as 13%.
